Legend:
[1] = substrate: CCCC=O; assay: AdhA alcohol dehydrogenase enzyme assay, Michaelis-Menten kinetics in cell extracts of P. furiosus strain A; format: biochemical, Thermoanaerobacter strain X514; settings: other: recombinant AdhA in cell extracts of P. furiosus strain A, 50 mM Mops pH 7.5, 2 mM DTT, 70° C., nonlinear regression
Procedure: (§1) The protein content was determined using a standard Bradford assay. Whole-cell extracts and S100 were kept anoxic at all times, and enzyme activity assays were performed under reducing conditions in anoxic 50 mM Mops (pH 7.5) plus 2 mM DTT at 70° C. […] Vmax and Km values of AdhA were calculated using nonlinear regression (nls function) in R (R Development Core Team, 2013, Available at www.R-project.org/).

[2] = substrate: CC=O; assay: as above; format: biochemical, Thermoanaerobacter strain X514; settings: other: recombinant AdhA in cell extracts of P. furiosus strain A, 50 mM Mops pH 7.5, 2 mM DTT, 70° C., nonlinear regression
Procedure: as §1

B1: T. X514 AdhA (Thermoanaerobacter ethanolicus) (protein)
chain: MWETKINPNKVFELRCKNTTYFGIGSIKKIKDILEVLKNKGINNVILVTGKGSYKASGAWDVVKPALETLGFKYSLYDKVGPNPTVDMIDEAAKIGRETGAKAVIGIGGGSPIDTAKSVAVLLEYTDKNARELYEQKFIPEKAAPIIAINLTHGTGTEVDRFAVATIPEKNYKPAIAYDCLYPMYAIDDPSLMTKLDKKQTIAVTIDALNHVTEAATTLVASPYSVLMAKETVRLIVRYLPAAVNDPENLVARYYLLYASALAGISFDNGLLHLTHALEHPLSAVKPEIAHGLGLGAILPAVVKAIYPSVAEVLAEVYSPIVPGLKGLPAEAEYVAKKVEEWLFKVGCTQKLSDFGFTKEDIPTLVRLAKTTPSLDGLLSNAPVEATEAVIAKIYEESF
Protein B1 has a Km [1] of 166 µM and a Km [2] of 63 µM.

Source: patent publication US20150275238A1, “GENETICALLY ENGINEERED MICROBES AND METHODS FOR CONVERTING ORGANIC ACIDS TO ALCOHOLS” (UNIVERSITY OF GEORGIA RESEARCH FOUNDATION, INC., priority 2014, published 2015)
